Results reported in US9725708B2, “Methods of modulating ubiquitin ligase activity” (Board of Supervisors of Louisiana State University and …, priority 2012, dated 2017).
“Also recorded” adds a separate entry of the source.

Target: T1, E6APF727D (Homo sapiens, UniProt Q05086, F750D)
T1 construct: made in house; host or cells: E. coli
T1 sequence (Q05086 1-872 isoform Q05086-3 F747D): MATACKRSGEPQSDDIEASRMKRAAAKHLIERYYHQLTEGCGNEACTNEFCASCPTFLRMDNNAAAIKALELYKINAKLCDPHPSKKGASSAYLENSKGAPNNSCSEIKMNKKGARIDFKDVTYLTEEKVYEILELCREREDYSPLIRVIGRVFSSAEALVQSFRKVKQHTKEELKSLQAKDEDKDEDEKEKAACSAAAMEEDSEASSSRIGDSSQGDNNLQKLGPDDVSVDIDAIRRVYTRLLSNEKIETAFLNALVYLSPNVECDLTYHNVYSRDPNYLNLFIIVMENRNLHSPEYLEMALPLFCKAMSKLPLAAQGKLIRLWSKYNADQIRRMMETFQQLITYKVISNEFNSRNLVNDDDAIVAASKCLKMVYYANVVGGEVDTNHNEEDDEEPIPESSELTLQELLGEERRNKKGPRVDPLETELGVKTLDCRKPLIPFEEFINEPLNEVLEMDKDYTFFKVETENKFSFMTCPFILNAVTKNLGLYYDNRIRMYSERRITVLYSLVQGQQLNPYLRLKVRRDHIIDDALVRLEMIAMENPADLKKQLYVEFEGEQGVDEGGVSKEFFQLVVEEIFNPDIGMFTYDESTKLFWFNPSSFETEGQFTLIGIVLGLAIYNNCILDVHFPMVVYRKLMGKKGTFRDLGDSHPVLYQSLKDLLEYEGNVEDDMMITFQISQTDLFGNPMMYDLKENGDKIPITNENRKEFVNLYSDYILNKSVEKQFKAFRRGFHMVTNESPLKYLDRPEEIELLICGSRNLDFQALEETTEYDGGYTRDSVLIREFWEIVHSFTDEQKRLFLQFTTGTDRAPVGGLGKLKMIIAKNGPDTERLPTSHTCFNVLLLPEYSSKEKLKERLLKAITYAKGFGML
Experiment: E6 rescue of 125I-polyubiquitin chain formation by E6APF727D
Assay type: biochemical
Details: 20 nM E6 protein
Protocol: E6AP-catalyzed ^125I-Ubiquitin Conjugation Assay: The E3 ligase activity of recombinant E6AP ligase was quantitated in kinetic assays under initial velocity conditions (Ronchi et al., (2013) J. Biol. Chem. 288, 10349-10360, Ronchi & Haas (2012) Methods Mol. Biol. 832: 197-218). Rates of E6AP-catalyzed ^125I-polyubiquitin chain formation were measured at 37° C. in incubations of 25-μl final volume containing 50 mM Tris-HCl (pH 7.5), 1 mM ATP, 10 mM MgCl2, 1 mM DTT, 10 mM creatine phosphate, 1 IU of creatine phosphokinase, 5 μM ^125I-ubiquitin (approximately 1.5×10^4 cpm/pmol), 50 nM human Uba1, and the indicated concentrations of UbcH7 and E6AP ligase (Siepmann et al., (2003) J. Biol. Chem. 278: 9448-9457; Baboshina et al., (2001) J. Biol. Chem. 276: 39428-39437). […]
Polyubiquitin chain formation was measured by excising lanes between the top of the resolving gel and the top of the stacker gel, representing anchored and free ^125I-polyubiquitin chains, respectively, and quantitating associated ^125I-ubiquitin by γ-counting. Absolute rates of ^125I-polyubiquitin chain formation were calculated from the associated radioactivity and the corrected specific radioactivity for ^125I-ubiquitin. Datum points represent single assay determinations, and complete data sets were evaluated by non-linear regression analysis using GraFit version 5.0 (Erithicus). […]

B1: E6 protein: recombinant human papilloma virus 16 E6 protein, 158 amino acids (protein)
chain: MHQKRTAMFQDPQERPRKLPQLCTELQTTIHDIILECVYCKQQLLRREVYDFAFRDLCIVYRDGNPYAVCDKCLKFYSKISEYRHYCYSLYGTTLEQQYNKPLCDLLIRCINCQKPLCPEEKQRHLDKKQRFHNIRGRWTGRCMSCCRSSRTRRETQL
  effect on E6APF727D: significantly enhanced; also recorded: rescues the kcat defect
